According to article PMC4176358:

These sequences were tested against T1, VqsMt (truncated VqsM) (Pseudomonas aeruginosa PAO1) (UniProt Q9I1P2) (assay: EMSA). Conditions: 20 mM Tris-HCl pH 7.4, 50 mM KCl, 5 mM MgCl2, 10% glycerol, 3 ug/ml sheared salmon sperm DNA; room temperature 20 min; DNA 40-50 nM (footprint DNase I at 25 C).
T1 sequence: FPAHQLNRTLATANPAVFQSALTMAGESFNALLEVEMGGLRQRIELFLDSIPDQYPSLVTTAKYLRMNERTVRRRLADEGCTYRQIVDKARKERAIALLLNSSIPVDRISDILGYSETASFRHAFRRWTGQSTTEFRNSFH

Sequence | binding
AAAAGGCGGCATCCCTACCCTGATACTCCTGGGCCCTCTCAGTCGGAGGACATACCAGCACACACATGAGGGGGAAGACTAAAGGAGGATGAACGGCAGGCAACCTGCCAGATCTGGTAGGGCGCGCCGACCGGCGCGCCCTGCGCTTCAGATGAGACCCAGCGCCGCGGCGTAGGCGGCAGCCAGCGTCTTGTTCGGCGCGTCGAACTTCTTCTGGATGTTC (double strand) [rhlI promoter] | no binding
AAAAAGCCTCCGTCATTCCTCATTGCAGTAAGCCCTGATCGATAAAATGCATCACAGCAGAATTGGCCCGGGGTATGACGCTGTCAAGCGCGCAGCCTTGCCGATACGGCAAAATCATGGCAACCCTATCTGTTATGCCAGCACCGTTCAGGACGCAGCCTTCAGCCATCGAGCATCCCCCTCCCTATGACAACGTTCGACCACCTGGGCCGCTTTACCGCAAGCGATACTGTGCGGTTGTGACAATTCCATGAAACGC (double strand) [rhlR promoter] | no binding
TAAAGATGGACGCTGGTTTGCGCAGCCCATGCACTGTCCGCCGCTGTCGCACCGATCGTCGTCAGGATCGATAACGCCAGTGCACAAACTTTTTTCATTGGATTTCCTTTCCGAAACGAAACAAGTTGGATTTTGCACCTACCAGAACTGGTAGTTCTGACCTGTGGCTATCTTCGAAGGCATCGATATTATGCACATTGGAACTCTTCATGACATAACGCCGAGTGACT (double strand) [vqsR promoter] | no binding
